According to patent US9096835B2, “DNA polymerase” (Medical Research Council, priority 2003, dated 2015):

Experiments:
Assay type in all cases: biochemical
four mismatch primers = assay: PCR screen of clones with four mismatch primers; settings: 292 base pair product, 50 cycles of PCR
Description: The resultant clones from both CSR and CST were screened and ranked by PCR assay. Briefly, 2 μl of induced cells were added to 20 μl of PCR mix with the relevant 4 mismatch primers. Clones that produced a band were then subjected to further analysis and their activity on single, double and quadruple mismatch primers (single mismatch primers: 5′-CAGGAAACAGCTATGACAAAAATCTAGATAACGAGGGA-3′ (SEQ ID NO: 48) and 5′-GTAAAACGACGGCCAGTACCACCGAACTGCGGGTGACGCCAAGCC 3′ (SEQ ID NO: 49); double mismatch primers: CAGGAAACAGCTATGACTCGACAAAAATCTAGATAACGACC (SEQ ID NO: 50) and GTAAAACGACGGCCAGTTTATTAACCACCGAACTGC (SEQ ID NO: 51); four mismatch primers above.) was investigated. Polymerases that could extend all of these mismatches were found, though many polymerases could do only one of the mismatches and […].
The best first and second round clones were shuffled as described above and subjected to another round of CSR. The same two sets of mismatch primers with four mismatches at their 3′ end were used in the emulsion as two separate sources of selective pressure. This was then dealt with as above and the resultant clones were screened and ranked by PCR assay (as above). Once again, polymerases that could extend all of these mismatches were found. In particular, clones 3B5.

[1] = tested on: primers with an abasic site seven bases from their 3′ end; assay: Abasic site bypass in PCR; settings: 176 bp product, 20 cycles of PCR
Description: FIG. 10. A list of polymerases selected to extend four mismatches were assayed for their ability to extend abasic sites in PCR. Primers with an abasic site seven bases from their 3′ end were designed. Such primers will prevent exponential amplification of the target sequence, restricting it to […] amplification, unless the abasic site is bypassed. […] (A) Screen which identified clone A10. (B) A further 4 polymerases that display good abasic site bypass. Lane M: markers, Hae III digest of Φ X174.
A list of polymerases selected to extend four mismatches were assayed for their ability to extend abasic sites in PCR (FIG. 10).

[2] = tested on: template containing an abasic site; assay: Translesion replication assay (primer extension), abasic site; settings: gel-extension assay, 60° C.
Description: Template primers 22 (undamaged) or 23 (containing a synthetic abasic site) were synthesized by Lofstrand Laboratories (Gaithersburg, Md.). Template primer 24 (containing a single cis-syn thymine dimer), was synthesized as described (34). Primer 25 was ^32P-labeled and annealed to one of the three templates 22, 23, 24 (at a primer template ratio of molar 1:1.5) and extended in 40 mM Tris.HCl at pH 8.0, 5 mM MgCl2, 100 μM of each dNTP, 10 mM DTT, 250 μg/ml BSA, 2.5% glycerol, 10 nM primer-template DNA and 0.1 Unit of polymerase at 60° C. for various times.
Primer extension assays were essentially as described in (Ghadessy et al., 2004). Briefly, undamaged oligonucleotides and a 51mer containing a synthetic abasic site were synthesized by Lofstrand Laboratories (Gaithersburg, Md.) using standard techniques and were gel purified prior to use. A 20mer primer (LES—20 P) with the sequence 5′-[…]-3′ (SEQ ID NO: 99) was 5′-labeled with [^32P]ATP (5000 Ci/mmole; 1 Ci=37 GBq) (Pharmacia) using T4 polynucleotide kinase (Invitrogen, Carlsbad Calif.). Radiolabeled primer-template DNAs were prepared by annealing the 5′[^32P] labeled 20mer primer to one of the two following 51mer templates (at a primer template ratio of molar 1:1.5). 1) undamaged DNA (UNDT51T); 5′-AGCTACCATGCCTGCACGAATTCGGCATCCGTCGCGACCACGGTCGCAGCG-3′ (SEQ ID NO: 100); 2) an oligo (LABA51T) containing a synthetic abasic site (indicated as an X in bold font); 5′-AGCTACCATGCCTGCACGACA XCG GCATCCGTCGCGACCACGGTCGCAGCG-3′ (SEQ ID NO: 101). Standard replication reactions of 10 contained 40 mM Tris.HCl at pH 8.0, 5 mM MgCl2, 100 μM of each ultrapure dNTP (Amersham Pharmacia Biotech, NJ), 10 mM DTT, 250 μg/ml BSA, 2.5% glycerol, 10 nM 5′[32P] primer-template DNA and 0.1 Unit of polymerase. After incubation at 60° C. for various times reactions were terminated by the addition of 10 μl of 95% formamide/10 mM EDTA and the samples heated to 100° C. for 5 min. Reaction mixtures (5 μl) were subjected to 20% polyacrylamide/7 M Urea gel electrophoresis and replication products visualized by PhosphorImager analysis.

Molecule	extension of primers containing four mismatches in PCR (four mismatch primers)	extension of primers containing four mismatches in PCR (four mismatch primers; listed as B8)	amplification product in PCR with abasic site primers [1]	extension of primers containing four mismatches in PCR (four mismatch primers; listed as C12)	abasic site bypass in primer extension [2]
3B8: third round clone; SEQ ID NO: 92 (protein, Mutant Taq polymerase) MAMLPLFEPKGRVLLVDGHHLAYRTFFALKGLTTSRGEPVQVVYGFAKSLLKALKEDGYKAVFVVFDAKAPSLRHEAYEAYKAGRAPTPEDFLRQLALIKELVDLLGFTRLEVQGYEADDVLATLAKKAEKEGYEVRILTADRDLYQLVSDRVAVLHPEGHLITPEWLWEKYGLRPEQWVDFRALVGDPSDNLPGVKGIGEKTALKLLKEWGSLENLLKNLDRLKPAIREKILAHMDDLKLSWDLAKVRTDLPLEVDFAKRREPDRERLRAFLERLELGSLLHEFGLLESPKTLEEASWPPPEGAFVGFVLSRKEPMWADLLALAAARGGRVHRAPEPYKALRDLKEARGLLAKDLSVLALREGLGLPPGDDPMLLAYLLDPSNTTPEGVARRYGGEWTKEAGERAALSERLFANLWGRLEGEERLLWLYREVDRPLSAVLAHMEATGVRLDVAYLRALSLEVAEEIARLEAEVFRLAGHPFNLNSRDQLERVLFDELGLPAIGKTEKTGKRSTSAAVLEALREAHPIVEKILQYRELTKLKSTYIDPLPDLIHPRTGRLHTRFNQTATATGRLSSSDPNLQNIPVRTPLGQRIRRAFVAEEGWLLVVLDYSQIELRVLAHLSGDENLTRVFLEGRDIHTETASWMFGVPREAVDPLMRRAAKTINFGVLYGMSAHRLSQELAIPYEEAQAFIERYFQSFPKVRAWIEKTLEEGRKRGYVETLFGRRRYVPDLNARVKSVREAAERMAFNMPVQGTAADLMKLAMVKLFPRLREMGARMLLQVHDELLLEAPQARAEEVAALAKEAMEKAYPLAVPLEVKEGIGEDWLSAKE	able to extend primers containing four mismatches	cannot	produced an amplification product	–	–
3B6: third round clone, abasic site bypass; SEQ ID NO: 90 (protein, Mutant Taq polymerase) MAMLPLFEPKGRVLLVDGHHLAYRAFFALKGLTTSRGEPVQAVYGFAKSLLKALKEDGYKAVFVVFDAKAPSFRHEAYEAYKAGRAPTPEDFPRQLALIKELVDLLGFTRLEVQGYEADDVLATLAKKAEKEGYEVRILTADRDLYQLVSDRVAVLHPEGHLITPEWLWEKYGLRPEQWVDFRALVGDPSNNLPGVKGIGEKTALKLLKEWGSLENLLKNLDRVKPENVREKIKAHLEDLRLSLELSRVRTDLPLEVDLAQGRELDRERLRAFLERLEFGGLLHEFGLLESPKALEEAPWPPPEGAFVGFVLSRKEPMWADLLALAAARGGRVHRAPEPYKALRDLKEARGLLAKDLSVLALREGLGLPPGDDPMLLAYLLDPSNTAPEGVARRYGGEWTEEAGERAALSERLFANLWGRLEGEERLLWLYREVDRPLSAVLAHMEATGVRLDVAYLRALSLEVAEEIARLEAEVFRLAGHPFNLNSRDQLERVLFDELGLPAIGKTEKTGKRSTSAAVLEALREAHPIVEKILQYRELTKLKSTYIDPLPNLIHPRTGRLHTRFNQTATATGRLSSSDPNLQNIPVRTPLGQRIRRAFIAEEGWLLVVLDYSQIELRVLAHLSGDENLIRVFQEGRDIHTETASWMFGVPREAVDPLMRRAAKTINFGVLYGMSAHRLSQELAIPYEEAQAFIERYFQSFPKVRAWIEKTLEEGRKRGYVETLFGRRRYVPDLNARVKGVREAAERMAFNMPVQGTAADLMKLAMVKLFPRLREMGARMLLQVHDELLLEAPQARAGEVAALAKEAMEKAYPLAVPLEVKVGIGEDWLSAKE	cannot	–	produced an amplification product	–	–
3B5: third round clone, four mismatch extension; SEQ ID NO: 88 (protein, Mutant Taq polymerase) MAMLPLFEPKGRVLLVDGHHLAYRTSFALKGPTTSRGEPVQVVYGFAKSLLKALKEDGYKAVFVVFDAKAPPFRHKAYEAYRAGRAPTPEDFPRQLALVKELVDLLGFTRLEVPGYEADDVLATLAKKAEKEGYEVRILTADRGLYQLVSDRVAVLHPEGHLITPEWLWEKYGLRPEQWVDFRALVGDPSDNLPGVKGIGEKTALKLLKEWGSLENLLKNLDRVKPENVREKIKAHLEDLRLSLELSRVRTDLPLEVDLAQGREPDRERLRAFLERLEFGSLLHEFGLLESPKALEEAPWPPPEGAFVGFVLSRKAPMWADLLALAAARGGRVYRAPEPYKALRDLKEARGLLAKDLSVLALREGLGLPPGDDPMLLAYLLDPSNTTPEGVARRYGGEWTEEAGERAALSERLFANLWGRLEGEERLLWLYREVDRPLSAVLAHMEATGVRLDVACLQALSLELAEEIRRLEEEVFRLAGHTFNLNSRDQLERVLFDELGLPAIGKTEKTGKRSTSAAILEALREAHPIVEKILQYRELTKLKSTYIDPLPDLIHPRTGRLHTRFNQTATATGRLSSSDPNLQNIPVRTPLGQRIRRAFIAEEGWLLVVLDYSQIELRVLAHLSGDENLIRVFQEGRDIHTETASWMFGVPREAVDPLMRRAAKTINFGVLYGMSAHRLSQELAIPYEEAQAFIERYFQSFPKVRAWIEKALEEGRRRGYVETLFGRRRYVPDLNARVKSVREAAERMAFNMPVQGTAADLMKLAMVKLFPRLREMGARMLLQVHDELLLEAPQARAEEVAALAKEAMEKAYPLAVPLEVKVGIGEDWLSAKE	able to extend primers containing four mismatches	–	–	–	–
3C12: third round clone, four mismatch extension; SEQ ID NO: 96 (protein, Mutant Taq polymerase) MAMLPLFEPKGRVLLVDGHHLAYRTFFALKGPTTSRGEPVQVVYGFAKSLLKALKEDGYKAVFVVFDAKAPSFRHKAYEAYRAGRAPTPEDFPRQLALIKELVDLLGFTRLEVPGYEADDVLATLAKKAEKEGYEVRILTADRGLYQLVSDRVAVLHPEGHLITPEWLWEKYGLRPEQWVDFRALVGDPSDNLPGVKGIGEKTALKLLKEWGSLENLLKNLDRVKPENVREKIKAHLEDLRLSLELSRVRTDLPLEVDLAQGREPDREGLRAFLERLEFGSLLHEFGLLESPKALEEAPWPPPEGAFVGFVLSRKEPMWADLLALAAARGGRVHRAPEPYKALRDLKEARGLLAKDLSVLALREGLGLPPGDDPMLLAYLLDPSNTAPEGVARRYGGEWTEEAGERAALSERLFANLWGRLEGEERLLWLYREVDRPLSAVLAHMEATGVRLDVACLQALSLELAEEIRRLEEEVFRLAGHPFNLNSRDQLERVLFDELGLPAIGKTEKTGKRSTSAAILEALREAHPIVEKILQYRELTKLKSTYIDPLPDLIHPRTGRLHTRFNQTATATGRLSSSGPNLQNIPVRTPLGQRIRRAFVAEEGWLLVVLDYSQIELRVLAHLSGDENLTRVFLEGRDIHTETASWMFGVPREAVDPLMRRAAKTINFGVLYGMSAHRLSQELAIPYEEAQAFIERYFQSFPKVRAWIEKTLEEGRKRGYVETLFGRRRYVPDLNARVKSVREAAERMAFNMPVQGTAADLMKLAMVKLFPRLREMGARMLLQVHDELLLEAPQARAEEVAALAKEAMEKAYPLAVPLEVKVGIGEDWLSAKE	able to extend primers containing four mismatches	–	produced an amplification product	can also extend four mismatched primers in PCR	improved abasic site activity
